Assay [1] has as its target Human interleukin 23 (hIL-23) (human) (UniProt Q9NPF7). The assay can be described thus: cell-based or functional assay.
The next assay concerns the target Natural IL-23 (human) (UniProt Q9NPF7). The assay can be described thus: binding ELISA, antibody coated at 1 µg/ml, IL-23 titrated, anti-His detection. A general note: ELISA stands for enzyme-linked immunosorbent assay.
Assay [2] addresses Human interleukin 23 (hIL-23) (human) (UniProt Q9NPF7). The assay can be described thus: SPR, Biacore T200, antibody captured on Protein A chip, IL-23 in flow, 25 °C, 1:1 model.

Chain of Human interleukin 23 (hIL-23) (human) (Q9NPF7 20-189 limits assumed, chain 1 of 2): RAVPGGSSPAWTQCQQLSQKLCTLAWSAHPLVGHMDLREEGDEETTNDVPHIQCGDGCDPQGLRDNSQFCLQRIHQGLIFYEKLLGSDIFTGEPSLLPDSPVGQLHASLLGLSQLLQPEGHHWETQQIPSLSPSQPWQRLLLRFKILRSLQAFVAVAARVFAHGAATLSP
Chain of Human interleukin 23 (hIL-23) (human) (chain, as listed by the source limits assumed, chain 2 of 2): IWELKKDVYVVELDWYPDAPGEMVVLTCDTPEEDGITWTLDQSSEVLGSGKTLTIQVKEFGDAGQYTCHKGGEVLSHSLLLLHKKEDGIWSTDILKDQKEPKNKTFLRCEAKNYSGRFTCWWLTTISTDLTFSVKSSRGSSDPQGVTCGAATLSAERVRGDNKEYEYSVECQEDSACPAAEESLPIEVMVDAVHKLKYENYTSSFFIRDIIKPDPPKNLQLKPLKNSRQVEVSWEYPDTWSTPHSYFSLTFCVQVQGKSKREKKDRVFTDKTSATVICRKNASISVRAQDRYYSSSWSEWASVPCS
Chain of Natural IL-23 (human) (Q9NPF7 20-189 limits assumed, chain 1 of 2): as the sequence (Q9NPF7 20-189 limits assumed, chain 1 of 2) above
Chain of Natural IL-23 (human) (chain, as listed by the source limits assumed, chain 2 of 2): as the sequence (chain, as listed by the source limits assumed, chain 2 of 2) above

B1: Risankizumab (antibody, INN chains, looked up, V domains shown)
VH: QVQLVQSGAEVKKPGSSVKVSCKASGYTFTDQTIHWMRQAPGQGLEWIGYIYPRDDSPKYNENFKGKVTITADKSTSTAYMELSSLRSEDTAVYYCAIPDRSGYAWFIYWGQGTLVTVSS
VL: DIQMTQSPSSLSASVGDRVTITCKASRDVAIAVAWYQQKPGKVPKLLIYWASTRHTGVPSRFSGSGSRTDFTLTISSLQPEDVADYFCHQYSSYPFTFGSGTKLEIKR
Broadly, the EC50 is the concentration at which the effect is half-maximal. The Kd is the free concentration of one partner at which half of the binding sites on the other are occupied at equilibrium, for simple one-to-one binding. The low end stands for higher affinity, the high end for lower affinity. The term koff denotes the rate constant with which the complex falls apart. High values mean fast dissociation, low ones slow dissociation. For orientation: kon means the rate constant with which the complex forms. Read a low kon as slower complex formation. For B1, in assay [1], the IC50, inhibition of phosphorylation of STAT3 in HEK Blue IL-23 cells induced by IL-23 came to 3.51 ng/mL; the IC50, inhibition of release of IFN-γ from human NK cells induced by IL-23 stood at 11.1 ng/mL; the IC50, inhibition of release of IL-17A from mouse spleen cells induced by IL-23 is 8.43 ng/mL. This molecule returned an EC50 in the assay with Natural IL-23 (human) of 1.8 ng/mL. In assay [2], this molecule showed a Kd of 52 pM, a koff of 3.7e-05 s⁻¹ and a kon of 706000 M⁻¹ s⁻¹.

Values taken from patent US12692303.
